PMC6765138 (Nucleic Acids Research, 2019)
Residue numbers refer to the chain shown, from its start.

B1: Se-Met-MtPrpR_(81–486) (selenomethionine-derived MtPrpR_(81–486)) (domain or fragment)
chain: DARLVADLSDVFTDIGVEHAVSGAQIEEFVARMPEVGHSLVAVHRRLRAATEELEGYRSRATAETELPPARPMPFEEVRDFFYDRNNYIHDLDMAAERMFTESGMRTGGLDIQLAELMRDRFGISVVIDDNLPDTAKRRYHPDTKVLRVAHWLMPGQRAFQIATQLALVGQSDLISSIVATDDQLSTEARGVARIGLANYFAGAFLLPYREFHRAAEQLRYDIDLLGRRFGVGFETVCHRLSTLQRPRQRGIPFIFVRTDKAGNISKRQSATAFHFSRVGGSCPLWVVHDAFAQPERIVRQVAQMPDGRSYFWVAKTTAADGLGYLGPHKNFAVGLGCDLAHAHKLVYSTGVVLDDPSTEVPIGAGCKICNRTSCAQRAFPYLGGRVAVDENAGSSLPYSSTEQSV
modifications: selenomethionine incorporated in place of methionine
notes: also called Se-PrpR_(81–486); not shown: His6, N-terminal, kept
B2: MtPrpR_(81–486)_F155H variant (domain or fragment)
chain: B1 chain with F75H
notes: also called MtPrpR_(81–486)_F155H mutant; MtRamB-like mutant of MtPrpR; not shown: His6, N-terminal, kept

Tests used:
[1] = molecular target: the molecule itself; test: crystal structure
[2] = molecular target: the molecule itself; test: SEC

| Protein | stoichiometry N [1] | stoichiometry N [2] |
| --- | --- | --- |
| B1 | 4 | – |
| B2 | – | 4 |
